The values that follow come from US20140199709A1.

The target of this assay is human mast cell β-tryptase (human) (UniProt Q15661). In words: sandwich ELISA, luminescence (CSPD): rabbit anti-human tryptase coated as capture, human tryptase titrated, AP-labeled G3 as detection; EC50 is of the tryptase concentration. A general note: In an ELISA, binding on a coated surface is turned into a signal by an enzyme label.
Chain of UniProt Q15661 (Q15661 31-275 limits assumed): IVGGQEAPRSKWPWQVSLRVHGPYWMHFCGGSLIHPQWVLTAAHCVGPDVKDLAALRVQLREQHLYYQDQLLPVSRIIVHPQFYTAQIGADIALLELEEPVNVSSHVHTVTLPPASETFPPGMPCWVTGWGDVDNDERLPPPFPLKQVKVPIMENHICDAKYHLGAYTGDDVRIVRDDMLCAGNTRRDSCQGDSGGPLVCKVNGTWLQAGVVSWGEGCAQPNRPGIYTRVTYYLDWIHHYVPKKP

Broadly, the EC50 is the concentration that produces a half-maximal response. Read a high EC50 as lower potency in that assay. Regarding “anti-tryptase antibody G3 (sc-33676; Santa Cruz Biotechnology, Inc.), alkaline phosphatase conjugated”, the 50% effective concentration (EC50) is 0.065 µg/mL.
